Consider 1 molecule from patent publication US20200190204A1.

In this test the target is hBAFF-R-GFP fusion protein on mouse fibroblast L cells (clone D2C) (human) (UniProt Q96RJ3). Put plainly: cell ELISA of hybridoma supernatant, anti-mouse IgG-HRP; same clone on parental L cell: 0.102. On the technique in general: ELISA stands for enzyme-linked immunosorbent assay.

B1: mouse mAb Clone 55 (hybridoma) (antibody, V domains shown)
VH: QVTLKESGPGILKPSQTLSLTCSFSGFSLSTSGMGVGWIRQPSGKGLEWLAHIWWDDDKYYNSSLKSHLTISKDTSRNQVFLKITSVDTADTATYYCARSFGYGLDYWGQGTTLTVSS
VL: DIQMTQTTSSLSASLGDRVTISCSASQDISNYLNWYQQKPDGTVKLLIYYTSSLHSGVPSRFSGSGSGTDYSLTISSLEPEDIATYYCHQFSELPWTFGGGTKLEIKR
As for B1, the OD 450 nm on (h)BAFF-R-expressing cells amounted to 1.07 OD 450 nm.
